Test results: article PMC5735978, “PAK6 Phosphorylates 14-3-3γ to Regulate Steady State Phosphorylation of LRRK2” (Frontiers in Molecular Neuroscience, 2017)
Numbering of substitutions follows the chain as printed. Names may count otherwise. Blank lines part the entries; values can stand above or below the binder they belong to.

Tests used:
3xFlag-PAK6 wild-type [1] = biological target: T1, 3xFlag-PAK6 wild-type (UniProt Q9NQU5 1-681, autophosphorylated; phospho-Ser560 monitored by western blot); assay: far-Western, overlay or dot blot; immunopurified Flag-tagged PAK6 or LRRK2 separated by SDS-PAGE and blotted onto nitrocellulose; incubated with purified His-14-3-3s at 1 μg/ml in 5% BSA in TBS-T overnight at 4°C; anti-His detection; conditions: both partners purified
T1 construct: construct as described in Civiero et al., 2015; source: HEK293T, transfected; in lysate (immunoprecipitation) and immunopurified on anti-Flag resin (pull-down, overlay)

3xFlag-PAK6 wild-type [2] = biological target: T1, 3xFlag-PAK6 wild-type; assay: pull-down; Flag-purified PAK6 bound to anti-Flag resin incubated for 2 h with purified His-14-3-3 isoforms (1 μM); bound 14-3-3s revealed with anti-His antibody; conditions: both partners purified
3xFlag-PAK6 S531N = biological target: T2, 3xFlag-PAK6 S531N (UniProt Q9NQU5 1-681, S531N, autophosphorylated; phospho-Ser560 monitored by western blot); assay: far-Western, overlay or dot blot; immunopurified Flag-tagged PAK6 or LRRK2 separated by SDS-PAGE and blotted onto nitrocellulose; incubated with purified His-14-3-3s at 1 μg/ml in 5% BSA in TBS-T overnight at 4°C; anti-His detection; conditions: both partners purified
T2 construct: PAK6, constitutively active variant; construct as described in Civiero et al., 2015; also called active variant S531N; source: HEK293T, transfected; in lysate (immunoprecipitation) and immunopurified (overlay)

[3] = biological target: the molecule itself; assay: native gel or EMSA; blue native gel (4-16%) of purified His-14-3-3γ wild-type, S59D and T145D; 5 μg of protein loaded; Coomassie staining

T1 sequence (Q9NQU5 whole entry): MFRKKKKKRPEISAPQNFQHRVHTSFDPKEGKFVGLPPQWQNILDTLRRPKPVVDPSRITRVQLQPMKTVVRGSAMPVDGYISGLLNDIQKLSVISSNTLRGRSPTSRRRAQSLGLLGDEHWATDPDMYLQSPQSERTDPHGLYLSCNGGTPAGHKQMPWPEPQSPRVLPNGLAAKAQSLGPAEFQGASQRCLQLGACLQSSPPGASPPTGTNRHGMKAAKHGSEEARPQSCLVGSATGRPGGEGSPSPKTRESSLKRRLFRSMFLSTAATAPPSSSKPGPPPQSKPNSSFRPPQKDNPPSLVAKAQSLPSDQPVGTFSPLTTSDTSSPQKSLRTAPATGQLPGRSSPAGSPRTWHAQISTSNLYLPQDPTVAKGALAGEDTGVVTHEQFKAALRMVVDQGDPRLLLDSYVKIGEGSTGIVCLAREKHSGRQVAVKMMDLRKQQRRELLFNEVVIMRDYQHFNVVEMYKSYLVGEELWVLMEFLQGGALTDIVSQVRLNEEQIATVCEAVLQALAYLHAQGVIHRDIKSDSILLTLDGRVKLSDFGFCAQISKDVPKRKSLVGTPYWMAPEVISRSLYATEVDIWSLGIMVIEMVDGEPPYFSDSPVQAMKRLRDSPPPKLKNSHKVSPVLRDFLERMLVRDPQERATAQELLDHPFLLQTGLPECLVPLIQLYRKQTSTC
T2 sequence (Q9NQU5 whole entry S531N): as the sequence (Q9NQU5 whole entry) above, with S531N counted along it

binding result (3xFlag-PAK6 wild-type [2]): binds
fold affinity against PAK6 wild-type (3xFlag-PAK6 S531N): 2 fold
B2: 6xHis-14-3-3γ wild-type (natural protein, human, UniProt P61981 1-247, looked up)
chain: MVDREQLVQKARLAEQAERYDDMAAAMKNVTELNEPLSNEERNLLSVAYKNVVGARRSSWRVISSIEQKTSADGNEKKIEMVRAYREKIEKELEAVCQDVLSLLDNYLIKNCSETQYESKVFYLKMKGDYYRYLAEVATGEKRATVVESSEKAYSEAHEISKEHMQPTHPIRLGLALNYSVFYYEIQNAPEQACHLAKTAFDDAIAELDTLNEDSYKDSTLIMQLLRDNLTLWTSDQQDDDGGEGNN
notes: 14-3-3 protein gamma, cloned in pET28a(+) by PCR from a mammalian expression plasmid (Prof. Dario Alessi); runs around the size of the dimer on blue native gels; also called recombinant 14-3-3γ; 14-3-3 gamma; source: E. coli BL21(DE3), purified (IMAC, ProBond resin; PD10 desalting); not shown: 6xHis, N-terminal, kept

binding result (3xFlag-PAK6 wild-type [1]): binds
B4: 6xHis-14-3-3 zeta (natural protein, human, UniProt P63104 1-245, looked up)
chain: MDKNELVQKAKLAEQAERYDDMAACMKSVTEQGAELSNEERNLLSVAYKNVVGARRSSWRVVSSIEQKTEGAEKKQQMAREYREKIETELRDICNDVLSLLEKFLIPNASQAESKVFYLKMKGDYYRYLAEVAAGDDKKGIVDQSQQAYQEAFEISKKEMQPTHPIRLGLALNFSVFYYEILNSPEKACSLAKTAFDEAIAELDTLSEESYKDSTLIMQLLRDNLTLWTSDTQGDEAEAGEGGEN
notes: 14-3-3 protein zeta, cloned in pET28a(+) by PCR from a mammalian expression plasmid (Prof. Dario Alessi); also called His-14-3-3ζ; source: E. coli BL21(DE3), purified (IMAC, ProBond resin; PD10 desalting); not shown: 6xHis, N-terminal, kept

More lines, now with the values behind:

B1: 6xHis-14-3-3 theta (natural protein, human, UniProt P27348 1-245, looked up)
chain: MEKTELIQKAKLAEQAERYDDMATCMKAVTEQGAELSNEERNLLSVAYKNVVGGRRSAWRVISSIEQKTDTSDKKLQLIKDYREKVESELRSICTTVLELLDKYLIANATNPESKVFYLKMKGDYFRYLAEVACGDDRKQTIDNSQGAYQEAFDISKKEMQPTHPIRLGLALNFSVFYYEILNNPELACTLAKTAFDEAIAELDTLNEDSYKDSTLIMQLLRDNLTLWTSDSAGEECDAAEGAEN
notes: 14-3-3 protein theta, cloned in pET28a(+) by PCR from a mammalian expression plasmid (Prof. Dario Alessi); also called His-14-3-3θ; source: E. coli BL21(DE3), purified (IMAC, ProBond resin; PD10 desalting); not shown: 6xHis, N-terminal, kept
binding result (3xFlag-PAK6 wild-type [1]): binds

B3: His-14-3-3γ T145D (natural protein, human, UniProt P61981 1-247, looked up)
chain: B2 chain with T145D
notes: 14-3-3 protein gamma, phosphomimetic mutant; also called S145D (as once printed); source: E. coli BL21(DE3), purified (IMAC); not shown: 6xHis, N-terminal, kept
binding result [3]: binds
